# Experimental data: PMC2886590 (Journal of molecular biology, 2010)
# Where no end group is shown, it is not given here.
# Biological target: MLL PHD3 finger (residues 1565-1627), GST cleaved (human, UniProt Q03164 1565-1627)
# Test: other fluorescence titration
# Sequence of MLL PHD3 finger (residues 1565-1627), GST cleaved (Q03164 1565-1627): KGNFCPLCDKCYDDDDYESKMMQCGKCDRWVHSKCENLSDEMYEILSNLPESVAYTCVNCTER
row,Binder,fold lower affinity than for H3K4me3
1,ARTK(Me)QTARKSTG [H3K4me1 peptide (12-mer histone tail peptide)],53 fold
2,ARTK(Me2)QTARKSTG [H3K4me2 peptide (12-mer histone tail peptide)],8 fold
